Measured values: publication PMC4737498, “An Anti-proteome Nanobody Library Approach Yields a Specific Immunoassay for Trypanosoma congolense Diagnosis Targeting Glycosomal Aldolase” (PLoS Neglected Tropical Diseases, 2016)

Legend:
Settings in all cases: one partner purified
[1] = target: T1, recombinant T. congolense glycosomal aldolase (Trypanosoma congolense IL3000, UniProt G0UWE7); assay: ELISA; homologous sandwich (Nb474H-Nb474B), capture step: crude soluble proteins of E. coli expressing recombinant aldolase (10 μg/well) on coated Nb474H
T1 construct: His6-tag with a proximal tobacco etch virus cleavage site; Construct synthesised by GenScript; also called TcoALD; recombinant TcoALD; source: E. coli BL21(DE3), pET-21b(+), in crude lysate (18 h post-induction)

[2] = target: T2, native T. congolense glycosomal fructose-1,6-bisphosphate aldolase (Trypanosoma congolense (TC13 soluble …, UniProt G0UWE7)); assay: ELISA; homologous sandwich Nb474-ELISA, capture step: Nb474H coated on Nunc plate (0.02 μg/ml in PBS, overnight 4°C), T. congolense soluble proteome, infected sera or secretome added 1 h at 22°C
T2 construct: glycosomal fructose-1,6-bisphosphate aldolase of Trypanosoma congolense, UniProtKB G0UWE7; band at about 40 kDa identified by mass spectrometry; Samples came from different strains (TC13, IL3000 and others); also called TcoALD; native TcoALD; source: endogenous, T. congolense soluble proteome (TC13), sera of T. congolense infected mice, T. congolense IL3000 secretome; in fixed T. congolense …

[3] = target: T2, native T. congolense glycosomal …; assay: ELISA; homologous sandwich Nb474-ELISA, detection step: Nb474B (0.02 μg/ml, 1 h at 22°C) on antigen captured from T. congolense samples by coated Nb474H; strep-HRP and TMB
[4] = target: T1, recombinant T. congolense glycosomal …; assay: ELISA; homologous sandwich (Nb474H-Nb474B), detection step: Nb474B on recombinant aldolase captured from crude E. coli lysate by coated Nb474H

Binder | binding result [1] | binding result [2] | binding result [3] | binding result [4]
Nb474H (His6-tagged Nanobody 474) (VHH, from an alpaca immunised with T. congolense TC13 soluble proteome; also called capturing Nb; His6-tag Nb; source: E. coli WK6 (pHEN6c), periplasmic extract, purified (His-Select Nickel, size exclusion chromatography)) VHH: QVQLQESGGGLVQPGGSLRLSCAASETALTYYAIGWFRQAPGKEREGVSCISRINSGSGARTDYADSVKGRFTISRDDAKNTVTLQMNSLEPEDTARYYCALDTTDRYDSANGRYYCTISSDTYDYWGQGTQVTVSS | binds | binds | – | –
Nb474B (biotinylated Nanobody 474) (VHH, same Nb as m1; also called detecting Nb; detection Nb) VHH: QVQLQESGGGLVQPGGSLRLSCAASETALTYYAIGWFRQAPGKEREGVSCISRINSGSGARTDYADSVKGRFTISRDDAKNTVTLQMNSLEPEDTARYYCALDTTDRYDSANGRYYCTISSDTYDYWGQGTQVTVSS | – | – | binds | binds
